This note sets out measurements from patent US20230272117A1 (published 2023).

Some results are limits rather than exact numbers.

Experiment [1] has as its target T1, human ATP Binding Cassette Subfamily C Member 1 (ABCC1) (UniProt P33527 1-1531). Kind of experiment: FACS titration on C6 cells.
Experiment [2] has as its target T1, human ATP Binding Cassette Subfamily C …. The experiment in a line: FACS titration on H69AR cells.
Experiment [3] shares this target. The experiment in a line: FACS titration on C6-hC1 cells.
Experiment [4] concerns the target T2, cynomolgus monkey ABCC1 (UniProt Q864R9 1-1531). The experiment in a line: FACS titration on C6-cC1 cells.
Experiment [5] has as its target T2, cynomolgus monkey ABCC1. Kind of experiment: FACS titration on C6 cells; C6 cells.

T2 sequence (Q864R9 whole entry): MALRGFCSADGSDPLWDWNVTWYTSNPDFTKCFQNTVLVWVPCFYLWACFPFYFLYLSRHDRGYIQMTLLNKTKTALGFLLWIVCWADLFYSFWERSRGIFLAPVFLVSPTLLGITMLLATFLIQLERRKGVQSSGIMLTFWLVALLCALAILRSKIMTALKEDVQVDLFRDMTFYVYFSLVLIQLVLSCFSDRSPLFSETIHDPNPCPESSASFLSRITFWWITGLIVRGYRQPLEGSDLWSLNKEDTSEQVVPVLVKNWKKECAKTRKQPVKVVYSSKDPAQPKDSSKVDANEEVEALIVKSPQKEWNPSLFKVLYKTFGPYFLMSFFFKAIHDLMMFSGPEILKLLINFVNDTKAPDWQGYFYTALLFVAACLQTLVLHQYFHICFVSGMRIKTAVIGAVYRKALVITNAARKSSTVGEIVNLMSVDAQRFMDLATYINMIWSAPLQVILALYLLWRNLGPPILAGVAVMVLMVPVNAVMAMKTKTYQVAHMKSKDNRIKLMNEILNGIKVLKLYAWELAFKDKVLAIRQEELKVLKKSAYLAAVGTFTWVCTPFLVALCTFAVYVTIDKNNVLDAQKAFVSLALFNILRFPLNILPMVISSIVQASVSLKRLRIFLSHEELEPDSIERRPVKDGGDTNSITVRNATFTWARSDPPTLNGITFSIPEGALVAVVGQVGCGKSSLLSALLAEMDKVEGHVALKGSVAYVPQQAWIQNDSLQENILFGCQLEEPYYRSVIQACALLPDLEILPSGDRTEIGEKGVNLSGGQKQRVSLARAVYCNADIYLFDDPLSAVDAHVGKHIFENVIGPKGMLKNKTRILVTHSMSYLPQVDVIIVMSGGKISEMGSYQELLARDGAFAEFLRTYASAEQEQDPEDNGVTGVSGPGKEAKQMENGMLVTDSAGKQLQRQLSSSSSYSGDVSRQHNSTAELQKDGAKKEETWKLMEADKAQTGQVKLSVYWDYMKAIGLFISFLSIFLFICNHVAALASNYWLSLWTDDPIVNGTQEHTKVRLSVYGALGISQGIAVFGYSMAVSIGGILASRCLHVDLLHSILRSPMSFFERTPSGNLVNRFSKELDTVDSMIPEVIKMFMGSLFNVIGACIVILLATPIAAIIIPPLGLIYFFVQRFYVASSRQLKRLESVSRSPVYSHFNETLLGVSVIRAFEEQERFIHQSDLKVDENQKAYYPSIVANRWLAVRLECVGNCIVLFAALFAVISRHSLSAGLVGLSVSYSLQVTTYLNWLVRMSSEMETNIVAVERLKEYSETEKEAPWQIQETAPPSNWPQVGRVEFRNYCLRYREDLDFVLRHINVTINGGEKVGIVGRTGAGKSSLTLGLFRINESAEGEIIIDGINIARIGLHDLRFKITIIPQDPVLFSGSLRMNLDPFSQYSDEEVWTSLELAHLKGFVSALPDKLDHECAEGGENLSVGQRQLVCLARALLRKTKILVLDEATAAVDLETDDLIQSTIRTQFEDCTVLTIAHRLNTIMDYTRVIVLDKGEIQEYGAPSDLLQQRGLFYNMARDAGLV

B1: C1.781A (antibody, V domains shown)
VH: EVQLTESGPGLVQPSQTLSLTCTVSGFSLTSNGVSWVRLPPGKGLEWIAAISSGGNIYYNSALKSRLSISRDTSKSQVFLKMNSLQTEDTAIYFCTRERGWNYPGITNGYYFDYWGQGTSVTVSS
VL: DIVLTQSPSLLSASVGDRVILSCKAGQKINNYLAWYQQKLGEAPKLLIYNANSLQTGIPSRFSGSGSGTDYTLTISSLQPEDVATYFCQQYNSWYTFGAGTKLEIK
As usually defined, the Kd is a measure of binding affinity in units of concentration. In experiment [1], B1 returned an equilibrium dissociation constant (Kd) of 116 nM.

B2: C1.309 (antibody, V domains shown)
VH: QVQLKESGPGLVAPSQSLSITCTVSGFSLTSYDITWIRQPPGKGLEWLGVIWTGGGTNYNSAFMSRLSISKDSSKSQVFLKMNSLRTDDTAIYYCVRDLRYGYDGFWYFDVWGAGTTVTVSS
VL: DVVMTQTPLSLPVSLGDQASISCRSSQSIVHSNGNTYLEWYLQKPGQSPKLLIYKVSNRFSGVPDRFSGSGTGTDFTLKISRVEAEDLGVYYCFQGSHVPRTFGGGTKLEIK
Take B2: the equilibrium dissociation constant (Kd) in experiment [2] is 10 nM; in experiment [1] it was 133 nM.

B3: C1.779B (antibody, V domains shown)
VH: EVKLLESGPGLVQPSQTLSLTCTVSGFSLTSNGVIWVRQPPGKGLEWIAAISSGGNIYYNSGLKSRLGISRDTSKSQVFLKMNSLQTEDTAIYFCTRARGTTTAYFMDAWGQGASVTVSS
VL: ETVMTQSPSSLAVSAGETVTMNCKSSQSLLYSGNQKNYLAWYQQKPGQSPKLLIYWASTRQSGVPDRFIGSGSGTDFTLTISSVQAEDLAIYYCQQYYDTLMKMFGAGTKLEIK
Take B3: the figures for the Kd in experiment [2] and in experiment [1] were 10.1 nM and 83.3 nM, respectively.

B4: C1.844 (antibody, V domains shown)
VH: EVQLKESGPGLVQPSQTLSLTCTVSGFSLTSNGVIWVRQPPGKGLEWIAAISSGGNIYYNSGLKSRLGISRDTSKSQVFLKMNSLQTEDTAIYFCTRARGTTTAYVMDAWGQGASVTVSS
VL: DIVMTQSPSSLAVSAGETVNINCKSSQSLLYSVNQKNYLAWYQQKPGQSPKLLIYWASTRQSGVPDRFIGSGSGTDFTLTISSVQAEDLAIYYCQQYYDTLMKMFGAGTKLELK
B4: the dissociation constant Kd in experiment [3] worked out at 65.1 nM; with cynomolgus monkey ABCC1 [4] it was 34.1 nM.

B5: C1.830B (antibody, V domains shown)
VH: EVQLKESGPGLVRPSQTLSLTCSVSGFSLTNYNVHWVRQPTGKGLEWMGIIWTGGYTDYNSDLKSRLSITRDTSKSQVFLKMNGLQTEDVATYYCARERHTMGITKSWYFDYWGQGASVTVSS
VL: DILMTQSPASLSASLGETISIECLASEGIFSYLGWYQQKPGKSPQLLIYGANSLQAGVPSRFSGSGSGTQYSLKISSMQPEDEGDYFCQQSYKFPVTFGSGTKLELK
On to B5, for which the dissociation constant Kd in experiment [3] stood at 14.4 nM; with cynomolgus monkey ABCC1 [4], 8.6 nM.

B6: C1.786a (antibody, V domains shown)
VH: EVQLTESGLGLVQPSQTLSLTCSVSGFSLTSYNVHWVRQPTGKGLEWMGVIWTGGYTDSNSPLKSRLSITRDTSKSQVFLKMNSLQSEDIATYYCARERHTMGITKSWYFDYWGQGVMVTVSS
VL: DVQMTQSPASLSASLGETISIECLASEGIFSYLAWYQQKPGKSPQLLIYGANTLQAGVPSRFSGSGSGTQYSLKISSMQPEDEGDYFCQQSYKFPVTFGSGTKLELK
On to B6, for which the dissociation constant Kd in experiment [2] stood at 8.3 nM.

B7: C1.879A (antibody, V domains shown)
VH: EVQLTESGPGLVQPSQTLSLTCTVSGFSLTSNGVSWVRQPPGKGLEWIAAISSGGSTYYNSAFKSRLSISRHTSKSQVLLNMNSLQTEDTAMYFCARHRGYYWSNWGYFDYWGQGVMVTVSS
VL: DIQLTQSPSLLSASVGDRVTLSCKGSQNINNYLAWYQQKVGEAPKLLIYKTNSLQTGIPSRFSGSGSGTDYTLTISSLHSEDLATYYCYQYNNGYTFGAGTKLELKR
Molecule B7 displayed an equilibrium dissociation constant (Kd) in the experiment with cynomolgus monkey ABCC1 [5] of 27.2 nM.

B8: C1.777a (antibody, V domains shown)
VH: EVQLVESGPGLVQPSQTLSLTCTVSGFSLTNNGVSWVRQPPGKGLEWIAAISSGGSIYYNLAFKSRLSISRNTSKGHVLLKMNSLQTEDTAMYFCVRHRGYYGFNWGYFDYWGQGVMVTVSS
VL: NIQLTQSPSLLSASVGDRVTLSCKGSQNINNYLAWYQQKLGEAPKLLIYKTNSLQTGIPSRFSGSGSGTDYTLTISSLHSEDLATYYCYQYNDGYTFGAGTKLELK
For B8, the Kd in experiment [2] came to 4.2 nM; in experiment [1], 41.2 nM.

B9: C1.778b (antibody, V domains shown)
VH: EVQRKESGPGLVQPSQTLSLTCTVSGFSLTNNGVSWVRQPPGKGLEWIAAISSGGSIYYNSAFKSRLSISRITSKSQVLLKMNSLQTEDTAMYFCARHRGYYGYNWGYFDYWGQGVMVTVSS
VL: NIQLTQSPSLLSASVGDRVTLSCKGSQNIDNYLAWYQQKLGEPPKLLIYKTNSLQTGIPSRFSGSGSGTDYTLTISSLHSEDLATYYCYQYNNGYTFGAGTKLELKR
With B9, the dissociation constant Kd in experiment [2] is 8.7 nM; with cynomolgus monkey ABCC1 [5] it was 28.2 nM; in experiment [1], 667 nM.

B10: C1.877 (antibody, V domains shown)
VH: EVQLTESGPGLVQPSQTLSLTCTVSGFSLTSNGVSWVRQPPGKGLEWIAAISSGGSTYYNSAFKSRLSISRHTSKSQVLLNMNSLQTEDTAMYFCARHRGYYWSNWGYFDYWGQGVMVTVSS
VL: DIVMTQSPSLLSASVGDRVTLSCKGSQNINNYLAWYQQKLGEAPKLLIYETNSLQTGIPSRFSGSGSGTDYTLTLSSLHSEDLATYYCYQYNDGYTFGAGTKLEIK
B10 registered a Kd with cynomolgus monkey ABCC1 [5] of 66.8 nM.

B11: C1.773a (antibody, V domains shown)
VH: EVQLKESGPGLVQPSQTLSLTCTVSGFSLTSNGVSWVRQPPGKGLEWIAAISSGGSIYYNSAFKSRLSISRHTSKSQVLLKMNSLQTEDTAMYFCARHRGYYGYNWGYFDYWGQGASVTVSS
VL: NIQLTQSPSLLSASVGDRVTLSCKGSQNINNYLAWYQQKLGEAPKLLIYKTNSLQTGIPSRFSGSGSGTDYTLTISSLHSEDLATYYCSQYNNGYTFGAGTKLEIK
Regarding B11, the Kd in experiment [2] was 3.2 nM; in experiment [1], 33 nM.

B12: C1.845 (antibody, V domains shown)
VH: EVQLVESGPGLVQPSQTLSLTCTVSGFSLTNNGVSWVRQPPGKGLEWIAAISSGGSIYYNLAFKSRLSISRNTSKGQVLLKMNSLQTEDTAMYFCARHRGYYGYNWGYFDYWGQGASVTVSS
VL: NIQLTQSPSLLSASVGDRVTLSCKGSQNINNYLAWYQQKLGEAPKLLIYKTNSLQTGIPSRFSGSGSGSDYTLTISSLHSEDLATYYCYQYNDGYTFGAGTKLELK
As for B12, the Kd was found to be 21.8 nM in experiment [3] and 20.1 nM with cynomolgus monkey ABCC1 [4].

B13: C1.855 (antibody, V domains shown)
VH: EVQLKESGPGLVQPSQTLSLTCTVSGFSLTSNGVSWVRQPPGKGLEWIAAISNGGNIYYNSAFKSRLSISRHTSKSQVLLKMNSLQTEDTAMYFCARHRGYYGYNWGYFDYWGQGASVTVSS
VL: NIQLTQSPSLLSASVGDRVTLSCKGSQNINNYLGWYQQKLGEAPRLLIYKTNSLQTGIPSRFSGSGSGTDYTLTISSLHSEDLATYYCYQYNNGYTFGAGTKLELK
Consider B13, for which the Kd in experiment [3] is over 1000 nM; with cynomolgus monkey ABCC1 [4] it was 279 nM.

B14: C1.784a (antibody, V domains shown)
VH: EVKLEESGPGLVQPSQTLSLTCTVSGFSLTNNGVSWVRQPPGKGLEWIAAMSSGGNIYYNSAFKSRLSISRDTSKSQVLLKMSSLQTEDTAMYFCGRHRGYYWYNWGFFDYWGQGASVTVSS
VL: NIQLTQSPSLLSASVGDRVTLSCKGSQNINNYLAWYQQKLGEAPKLLIYKTNSLQTGIPSRFSGSGSGTDFTLTISSLHSEDLATYYCCQYNNGYTFGAGTKLELK
As for B14, the Kd was 7 nM in experiment [2] and 38.2 nM in experiment [1].

B15: C1.841 (antibody, V domains shown)
VH: EVQLLESGPGLVQPSQTLSLTCTVSGFSLTNNGVSWVRQPPGKGLEWVAAMSSGGNIYYNSAFKSRLSISRHTSKSQVLLKMNSLQTEDTAMYFCARHRGYYGYNWGYFDYWGQGVMVTVSS
VL: NIQLTQSPSLLSASVGDSVSLRCKGSQNIYNYLAWYQQKLGEAPKLLIYKTNNLQTGIPSRFSGSGSGTDYTLTISSLNSEDLATYYCCQYNNGYTFGAGTKLELK
Regarding B15, the Kd in experiment [3] stood at 103 nM; in the experiment with cynomolgus monkey ABCC1 [4], 42.3 nM.

B16: C1.851 (antibody, V domains shown)
VH: EVQLKESGPGLVQPSQTLSLTCTVSGFSLTNNGVSWIRQPPGKGLEWIAAISSGGNIYYNSAFKSRLSISRNTSKRQVLLKMNSLQTEDTAMYFCARHRGYYGYNWGYFDYWGQGASVTVSS
VL: NIQLTQSPSLLSASVGDRVTLSCKGSQNINNYLAWYQQKLGEAPKLLIYKTNSLQTGIPSRFSGSGSGTDYTLTISSLHSEDLATYYCCQYNNGYTFGAGTKLELKR
Regarding B16, the Kd in experiment [3] turned out to be 98 nM; in the experiment with cynomolgus monkey ABCC1 [4], 28 nM.

B17: C1.876 (antibody, V domains shown)
VH: QVQLKESGPGLVQPSQTLSLTCTVSGFSLTNNGVSWVRQPPGKGLEWIAAMSSGGSIYYNSAFKSRLSISRHTSKSQVLLQMNSLQTEDTAMYFCTRHRGYYGYNWGYFDYWGQGVMVTVSS
VL: DIQLTQSPSLLSASVGDSVSLRCKGSQNIYNYLAWYQQKLGEAPKLLIYKTNNLQTGIPSRFSGSGSGTDYTLTISSLNSEDLATYYCCQYNNGYTFGAGTKVELK
Consider B17, for which, in the experiment with cynomolgus monkey ABCC1 [5], the Kd stood at 3.7 nM.

B18: C1.847 (antibody, V domains shown)
VH: EVQLKESGPGLVQPSQTLSLTCTVSGFSLTNNGVSWVRQPPGKGLEWIAAISSGGNIYHNSALKSRLSISRNTAQSQVLLKMNSLQTEDTAMYFCARHRGYYGYNWGYFDYWGQGTLVTVSS
VL: NIQLTQSPSLLSASVGDRVTLSCKGSQNIYNYLAWYQQKLGEAPKLLIYKTNSLQTGIPSRFSGSGSGTDYTLTISSLHSEDLATYYCCQYNNGYTFGAGTKLELK
Take B18: the Kd in experiment [3] stood at 21.7 nM; with cynomolgus monkey ABCC1 [4], 23.3 nM.

B19: C1.505.hu11 (antibody, V domains shown)
VH: EVQLQESGPGLVKPSETLSLTCTVSGFSLTSNGVSWVRQPPGKGLEWIAAISSGGSTYYNSAFKSRLTISRDTSKNQVSLKLSSVTAADTAVYYCARHRGYYWSNWGYFDYWGQGTLVTVSS
VL: DIQLTQSPSSLSASVGDRVTITCKGSQNINNYLAWYQQKPGKAPKLLIYKTNSLQTGIPSRFSGSGSGTDYTLTISSLQPEDFATYYCCQYNDGYTFGQGTKLEIK
Consider B19, for which, in experiment [1], the dissociation constant Kd worked out at 158 nM.
